pKd: −log10 of the molar value.
Experiments:
[1] = target: kindlin-2 (endogenous, fibroblasts) [mouse (endogenous in talin^1/2dko fibroblasts)]; test: anti-GFP immunoprecipitation, western blot quantification; settings: talin1/2dKO fibroblasts, N = 3; parent: 1; read off a plot
[2] = target: GST-integrin beta3 cytoplasmic tail (UniProt P05106); test: SPR; GST-integrin beta3CT amine-coupled to CM5, talinH or tlnM3 (0–125 nM) flowed over; 50 mM sodium phosphate pH 6.8, 150 mM NaCl, 0.05% Tween 20, 0.03% BSA, 25 °C
paxillin 1–160 (human) = paxillin 1–160 (human) (UniProt P49023); test: SPR; paxillin 1–160 amine-coupled to CM5, talin subdomains (0–12 μM) flowed over; 50 mM sodium phosphate pH 6.8, 150 mM NaCl, 25 °C; talin-R1–R4 fitted by a two-state model
[3] = target: constitutively activated full-length talin mutant tlnM3 (M319A, T1767L, E1770K) (mouse) (UniProt P26039); test: SPR; tlnM3 amine-coupled to CM5, tlnM3 flowed over; 150 mM salt, pH 6.8, 25 °C; intermolecular tlnM3/tlnM3 interaction (dimerization)

Sequence of paxillin 1–160 (human) (P49023 1-160): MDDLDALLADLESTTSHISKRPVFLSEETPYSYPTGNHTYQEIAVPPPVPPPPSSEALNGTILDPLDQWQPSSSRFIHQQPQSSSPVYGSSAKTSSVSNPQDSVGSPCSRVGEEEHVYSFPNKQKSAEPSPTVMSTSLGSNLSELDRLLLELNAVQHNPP
Sequence of GST-integrin beta3 cytoplasmic tail (P05106 742-788): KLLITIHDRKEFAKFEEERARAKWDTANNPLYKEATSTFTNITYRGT

C-terminally ypet-tagged full-length talin WT mutant A680E; K687E [mouse] / kindlin-2 (endogenous, fibroblasts) [mouse (endogenous in talin^1/2dko fibroblasts)] chain 1 A680E, chain 1 K687E
ratio to parent [1]: 0.49

talin N-terminal head domain (talin-H) (domain or fragment)
pKd [2]: 7.53

C-terminally ypet-tagged full-length talin WT mutant A680E; K687E; T2126E; K2133E [mouse] / kindlin-2 (endogenous, fibroblasts) [mouse (endogenous in talin^1/2dko fibroblasts)] chain 1 A680E, chain 1 K687E, chain 1 T2126E, chain 1 K2133E
ratio to parent [1]: 0.31

C-terminally ypet-tagged full-length talin WT mutant T2126E; K2133E [mouse] / kindlin-2 (endogenous, fibroblasts) [mouse (endogenous in talin^1/2dko fibroblasts)] chain 1 T2126E, chain 1 K2133E
ratio to parent [1]: 0.81

talin-R1–R4 (domain or fragment)
pKd (paxillin 1–160 (human)): 6.82 | stoichiometry N (paxillin 1–160 (human)): 1

talin-R11 (domain or fragment)
pKd (paxillin 1–160 (human)): 4.90

talin deletion mutant without C-terminal dimerization domain (from UniProt P26039 1-2482) (domain or fragment)
pKd [2]: 7.44

constitutively activated full-length talin mutant tlnM3 (M319A, T1767L, E1770K), P26039 1-2541
pKd [3]: 5.74

Reference: publication PMC9054839
